Experimental data: patent US20200000897A1 (published 2020)

Target: T1, HLA-A*03:01 (human)
T1 construct: MHC class I monomer first loaded with a UV-sensitive peptide that is cleaved by UV irradiation and exchanged for the test peptide; captured on streptavidin plates; also called peptide-receptive MHC molecules
Experiment: UV-ligand exchange, anti-b2m ELISA; peptide exchange yield grade (>10% +, >20% ++, >50% +++, >75% ++++)
Excerpt: Candidate peptides for T cell based therapies according to the present invention were further tested for their MHC binding capacity (affinity). The individual peptide-MHC complexes were produced by UV-ligand exchange, where a UV-sensitive peptide is cleaved upon UV-irradiation and exchanged with the peptide of interest as analyzed. Only peptide candidates that can effectively bind and stabilize the peptide-receptive MHC molecules prevent dissociation of the MHC complexes. To determine the yield of the exchange reaction, an ELISA was performed based on the detection of the light chain (β2m) of stabilized MHC complexes. The assay was performed as generally described in Rodenko et al. (Rodenko et al., 2006)
96 well MAXISorp plates (NUNC) were coated over night with 2 ug/ml streptavidin in PBS at room temperature, washed 4× and blocked forl h at 37° C. in 2% BSA containing blocking buffer. Refolded HLA-A*02:01/MLA-001 monomers served as standards, covering the range of 15-500 ng/ml. Peptide-MHC monomers of the UV-exchange reaction were diluted 100-fold in blocking buffer. Samples were incubated for 1 h at 37° C., washed four times, incubated with 2 ug/ml HRP conjugated anti-β2m for 1 h at 37° C., washed again and detected with TMB solution that is stopped with […]. Absorption was measured at 450 nm.

peptide exchange yield | Binder
> 75% | VLYRPQLEK
10 to 20% | SLFPYYNNLY
> 75% | HAFFPKTHR
20 to 50% | RLGAARGQLR
50 to 75% | VVTGNVPLK
20 to 50% | KRIPFRPLAK
> 75% | VTAVASLLK
> 75% | HLFLPFSYK
> 75% | RLVELAGQSLLK
50 to 75% | KGWNGQIFK
10 to 20% | HAFPPGPNY
50 to 75% | RVLYRPQLEK
20 to 50% | VVDDSQLPK
50 to 75% | RTIEELQNK
50 to 75% | ALNDRFAGY
50 to 75% | VIYVICRHK
20 to 50% | HSAGIFSMY
> 75% | ALFGNALVFY
> 75% | LLYGNGPGYVLK
> 75% | RCFSGPYLNK
> 75% | RVCMTVDSLVNK
> 75% | SLYDSEPRKK
> 75% | CLANYTVNK

peptide exchange yield | Binder
> 75% | SIFGLAPGK
50 to 75% | RVSGSGGGGAGK
> 75% | ITAPLMPLGK
50 to 75% | VVREILHAQTLK
50 to 75% | IINESLLFY
> 75% | ALCGTQLFY
> 75% | SVLSRMLVR
10 to 20% | IMPTFDLTK
> 75% | GLSTILLYH
50 to 75% | VTADGALAMEK
20 to 50% | KLLEDMVEK
> 75% | GIFPKIMPK
10 to 20% | IMKRQVKCITK
20 to 50% | EVILTTKTPK
20 to 50% | KGPMAGILAY
> 75% | QIRAELMKK
20 to 50% | VLLLLSLLH
> 75% | RLASVGLDAK
20 to 50% | KTQFPQLK
50 to 75% | KINQYIIKK
> 75% | TVYDSIWCNMK
50 to 75% | KQALSLVRK
10 to 20% | LLDAEPPILY

peptide exchange yield | Binder
> 75% | KLYPQCLQK
> 75% | KLADSVMAGK
> 75% | QLYSPPSPSYR
50 to 75% | AVAAVLLSR
> 75% | SSFRPLLSK
50 to 75% | FSNNHPSTPK
50 to 75% | VLYELGIIGNNK
50 to 75% | KARDLRTPK
50 to 75% | AIGTPLIGK
50 to 75% | KTGTFVLYKS
> 75% | KCYEVGMMK
50 to 75% | GVTITKTLK
50 to 75% | TTYYPSPLNK
50 to 75% | RLSAESKDLLK
> 75% | GMYEYGSIEK
> 75% | RTALLWGLKK
> 75% | IIFVPEMNK
> 75% | GTHVWVGLYK
50 to 75% | RVKEIVINK
50 to 75% | VVFPFPVNKR
50 to 75% | HVLYPVPLESY
